Measured values from patent US20110142851A1 (EMERGENT PRODUCT DEVELOPMENT SEATTLE, published 2011).

How the values were obtained:
Hyper-IL6 [1] = target: T1, Hyper-IL6 (human); test: SPR Biacore, mAb captured by anti-mouse Fc, HIL6 injected
T1 chain: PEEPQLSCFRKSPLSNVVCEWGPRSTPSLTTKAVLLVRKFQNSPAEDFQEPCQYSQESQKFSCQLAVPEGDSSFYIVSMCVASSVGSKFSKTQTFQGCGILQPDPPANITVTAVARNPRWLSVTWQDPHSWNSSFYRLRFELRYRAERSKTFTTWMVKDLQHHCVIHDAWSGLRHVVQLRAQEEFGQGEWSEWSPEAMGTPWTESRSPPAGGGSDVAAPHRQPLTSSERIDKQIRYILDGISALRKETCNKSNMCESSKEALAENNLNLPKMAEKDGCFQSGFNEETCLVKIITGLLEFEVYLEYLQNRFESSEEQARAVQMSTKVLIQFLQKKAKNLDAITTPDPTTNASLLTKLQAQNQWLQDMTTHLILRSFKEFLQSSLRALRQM

recombinant human IL6 [2] = target: T2, recombinant human IL6 (human, UniProt P05231 30-212); test: SPR Biacore, mAb captured by anti-mouse Fc, single cycle kinetics
T2 construct: also called rhIL6; IL6 monomer

recombinant human IL6 [3] = target: T2, recombinant human IL6; test: SPR Biacore T100, binder captured by anti-human Fc
hu HIL6 AFH monomer = target: T3, hu HIL6 AFH monomer (human); test: SPR Biacore T100, binder captured by anti-human Fc
T3 chain: T1 chain

[4] = target: T4, hu HIL6 Fc dimer (dimeric human HIL6/mouse IgG Fc fusion protein) (human); test: SPR Biacore T100, binder captured by anti-human Fc
T4 construct: also called human hyper-IL6 (IL6R-IL6-mIgG); dimeric HIL6
T4 chain: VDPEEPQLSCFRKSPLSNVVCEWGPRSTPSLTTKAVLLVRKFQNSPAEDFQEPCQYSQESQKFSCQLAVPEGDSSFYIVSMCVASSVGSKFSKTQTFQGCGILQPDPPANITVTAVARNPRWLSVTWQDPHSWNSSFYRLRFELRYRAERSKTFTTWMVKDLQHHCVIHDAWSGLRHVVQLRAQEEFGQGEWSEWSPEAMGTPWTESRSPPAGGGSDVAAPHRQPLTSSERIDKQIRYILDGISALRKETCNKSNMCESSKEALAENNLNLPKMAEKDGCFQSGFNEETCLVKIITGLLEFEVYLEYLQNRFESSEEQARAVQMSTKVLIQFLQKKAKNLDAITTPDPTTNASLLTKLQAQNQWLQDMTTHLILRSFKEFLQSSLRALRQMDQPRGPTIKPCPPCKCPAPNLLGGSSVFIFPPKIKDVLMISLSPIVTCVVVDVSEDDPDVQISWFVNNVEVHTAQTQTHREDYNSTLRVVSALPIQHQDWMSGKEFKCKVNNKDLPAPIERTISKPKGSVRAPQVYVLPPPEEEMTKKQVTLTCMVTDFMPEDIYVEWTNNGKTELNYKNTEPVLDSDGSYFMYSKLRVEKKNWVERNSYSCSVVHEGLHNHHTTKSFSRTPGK

sIL6R Fc dimer = target: T5, sIL6R Fc dimer (UniProt P08887 20-358, limits assumed); test: SPR Biacore T100, binder captured by anti-human Fc
T5 construct: not shown: Fc
T5 sequence (looked up): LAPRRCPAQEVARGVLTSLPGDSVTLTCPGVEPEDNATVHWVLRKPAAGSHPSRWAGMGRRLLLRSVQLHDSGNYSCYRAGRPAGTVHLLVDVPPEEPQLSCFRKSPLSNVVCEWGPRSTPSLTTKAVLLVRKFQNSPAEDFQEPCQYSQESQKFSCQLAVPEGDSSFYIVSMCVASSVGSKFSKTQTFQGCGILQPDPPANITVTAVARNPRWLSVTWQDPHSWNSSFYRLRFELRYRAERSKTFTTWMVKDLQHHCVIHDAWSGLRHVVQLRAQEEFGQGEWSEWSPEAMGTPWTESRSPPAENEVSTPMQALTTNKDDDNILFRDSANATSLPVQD

recombinant human IL6 [5] = target: T2, recombinant human IL6; test: SPR Biacore, binder captured by anti-human Fc, single cycle kinetics
Experimental: (§1) Anti-IL6 binding domains were captured using immobilized anti-mouse Fc polyclonal antibody in the case of anti-IL6 antibodies, or an anti-human Fc monoclonal in the case of SMIPs, Xceptors, and humanized SMIPs. IL6 binding to the anti-IL6 binding domains was studied using single cycle kinetics. Five sequential injections of IL6 were made per cycle starting with the lowest concentration of IL6 (6.4 pM) and progressing to the highest concentration (4,000 pM). The flow rate was 45 μL per minute and each injection of IL6 lasted 7 minutes. At the end of the highest IL6 concentration injection, IL6 was allowed to dissociate for 30 minutes. The data were fit to a one-to-one binding single cycle kinetics model. HIL6 binding was studied by injecting a single concentration of HIL6 (from 6.4-4,000 pM) per cycle for 7 minutes, and then allowing the bound HIL6 to dissociate for either 30 seconds (0 to 800 pM) or one hour (0 and 4,000 pM). […] All analysis was performed using BIAevaluation software.

Hyper-IL6 [6] = target: T1, Hyper-IL6; test: SPR Biacore, binder captured by anti-human Fc, HIL6 injected
Experimental: as §1

B1: AH-65 mAb (antibody, V domains shown)
VH: EVQLVESGGGLVQPKGTLRLSCAASGFSFNTYAMNWVRQAPGKSLEWVARTVTKSNKYATYYADSVSDRVTISREDSQSMLYLQMTNLKTEDTAMYYCVREDYYGTLDYWGQGTSVTVSS
VL: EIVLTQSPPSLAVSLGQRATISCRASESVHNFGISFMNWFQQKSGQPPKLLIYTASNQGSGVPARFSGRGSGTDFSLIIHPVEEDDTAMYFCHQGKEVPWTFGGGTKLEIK
Kd (Hyper-IL6 [1]): 0.012 nM
koff (Hyper-IL6 [1]): 2.4e-05 s⁻¹
kon (Hyper-IL6 [1]): 2e+06 M⁻¹ s⁻¹
Kd (recombinant human IL6 [2]): 0.007 nM
koff (recombinant human IL6 [2]): 2.2e-05 s⁻¹
kon (recombinant human IL6 [2]): 3.2e+06 M⁻¹ s⁻¹

B2: TRU(XT6)-1013 (Fc fusion)
chain: LPAQVAFTPYAPEPGSTCRLREYYDQTAQMCCSKCSPGQHAKVFCTKTSDTVCDSCEDSTYTQLWNWVPECLSCGSRCSSDQVETQACTREQNRICTCRPGWYCALSKQEGCRLCAPLRKCRPGFGVARPGTETSDVVCKPCAPGTFSNTTSSTDICRPHQICNVVAIPGNASMDAVCTSTSPTRSMAPGAVHLPQPVSTRSQHTQPTPEPSTAPSTSFLLPMGPSPPAEGSTGDTGEPKSSDKTHTCPPCPAPEAAGAPSVFLFPPKPKDTLMISRTPEVTCVVVDVSHEDPEVKFNWYVDGVEVHNAKTKPREEQYNSTYRVVSVLTVLHQDWLNGKAYACAVSNKALPAPIEKTISKAKGQPREPQVYTLPPSRDELTKNQVSLTCLVKGFYPSDIAVEWESNGQPENNYKTTPPVLDSDGSFFLYSKLTVDKSRWQQGNVFSCSVMHEALHNHYTQKSLSLSPGQRHNNSSLNTRTQKARHSPNSEVQLLESGGGLVQPGGSLRLSCAASGFTFSGYVMGWVRQAPGKGLEWVSSISPSGGYTLYADSVKGRFTISRDNSKNTLYLQMNSLRAEDTAVYYCARAFSTRWYWGAFDIWGQGTMVTVSSGGGGSGGGGSGGGGSQDIQMTQSPATLSLSPGERATLSCRASQSVRSYLAWYQQKPGQAPRLLIYDASNRATGIPARFSGSGSGTDFTLTITSLQPEDIATYYCQQYDNLPLTFGGGTKVEIK
notes: Xceptor, TNFRSF1B ectodomain N-terminal, anti-IL6xR domain C-terminal
binding result (recombinant human IL6 [3]): no binding (tested: 100 nM)
Kd (hu HIL6 AFH monomer): 190 nM
Kd [4]: 270 nM
binding result (sIL6R Fc dimer): no binding (tested: 100 nM)

B3: BSF2-77 mAb (antibody, V domains shown)
VH: QVQLQQPGAELVKPGASVKLSCKASGYIFTSYWMHWVKQRPGQGLEWIGEINPSNGRTNYNERFKSKATLTVDKSSSTAYIQLSSLTSDDSAVYYCSRSDTKATCDYWGQGTTLTVSS
VL: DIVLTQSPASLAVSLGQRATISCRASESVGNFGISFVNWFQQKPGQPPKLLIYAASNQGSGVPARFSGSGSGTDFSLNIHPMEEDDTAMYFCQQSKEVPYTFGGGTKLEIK
Kd (Hyper-IL6 [1]): 0.444 nM
koff (Hyper-IL6 [1]): 0.00096 s⁻¹
kon (Hyper-IL6 [1]): 2.2e+06 M⁻¹ s⁻¹
Kd (recombinant human IL6 [2]): 0.41 nM
koff (recombinant human IL6 [2]): 0.002 s⁻¹
kon (recombinant human IL6 [2]): 4.8e+06 M⁻¹ s⁻¹

B4: TRU(S6)-1063 (Fc fusion)
VH: EVQLVESGGGLVQPGGSLRLSCAASGFTFNTYAMNWVRQAPGKGLEWVGRTVTKSNKYATYYADSVSDRFTISRDDSKNSLYLQMNSLKTEDTAVYYCAREDYYGTLDYWGQGTLVTVSS
VL: EIVLTQSPATLSLSPGERATLSCRASESVHNFGISFMNWYQQKPGQAPRLLIYTASNQGSGIPARFSGSGSGTDFTLTISSLEPEDFAVYYCHQGKEVPWTFGQGTKVEIK
notes: Humanized SMIP fusion protein (single chain)
Kd (recombinant human IL6 [5]): 0.051 nM
koff (recombinant human IL6 [5]): 0.00019 s⁻¹
kon (recombinant human IL6 [5]): 3.9e+06 M⁻¹ s⁻¹
Kd (Hyper-IL6 [6]): 0.05 nM
koff (Hyper-IL6 [6]): 0.00018 s⁻¹
kon (Hyper-IL6 [6]): 3.6e+06 M⁻¹ s⁻¹

B5: TRU(S6)-1064 (Fc fusion)
VH: B4 VH
VL: DIVLTQSPASLAVSPGQRATITCRASESVHNFGISFMNWYQQKPGQPPKLLIYTASNQGSGVPARFSGSGSGTDFTLTINPVEANDTANYYCHQGKEVPWTFGQGTKVEIK
notes: as for B4
Kd (recombinant human IL6 [5]): 0.048 nM
koff (recombinant human IL6 [5]): 0.0002 s⁻¹
kon (recombinant human IL6 [5]): 4.2e+06 M⁻¹ s⁻¹
Kd (Hyper-IL6 [6]): 0.046 nM
koff (Hyper-IL6 [6]): 0.00019 s⁻¹
kon (Hyper-IL6 [6]): 4.1e+06 M⁻¹ s⁻¹

B6: TRU(XT6)-1029 (Fc fusion)
chain: LPAQVAFTPYAPEPGSTCRLREYYDQTAQMCCSKCSPGQHAKVFCTKTSDTVCDSCEDSTYTQLWNWVPECLSCGSRCSSDQVETQACTREQNRICTCRPGWYCALSKQEGCRLCAPLRKCRPGFGVARPGTETSDVVCKPCAPGTFSNTTSSTDICRPHQICNVVAIPGNASMDAVCTSTSPTRSMAPGAVHLPQPVSTRSQHTQPTPEPSTAPSTSFLLPMGPSPPAEGSTGDTGEPKSSDKTHTCPPCPAPEAAGAPSVFLFPPKPKDTLMISRTPEVTCVVVDVSHEDPEVKFNWYVDGVEVHNAKTKPREEQYNSTYRVVSVLTVLHQDWLNGKAYACAVSNKALPAPIEKTISKAKGQPREPQVYTLPPSRDELTKNQVSLTCLVKGFYPSDIAVEWESNGQPENNYKTTPPVLDSDGSFFLYSKLTVDKSRWQQGNVFSCSVMHEALHNHYTQKSLSLSPGQRHNNSSLNTRTQKARHSPNSEVQLLESGGGLVQPGGSLRLSCAASGFTFSSYWMHWVRQAPGKGLEWVSSIYPSGGSTEYADSVKGRFTISRDNSKNTLYLQMNSLRAEDTAVYYCAKGIWFDPWGQGTLVTVSSGGGGSGGGGSGGGGSQDIQMTQSPATLSASVGDRVTITCRSSQRISGYLNWYQQQPGKAPKLLIYAASTLQSGVPSRISGSGSGTDFSLIISSLQPEDVATYYCQQSYSPPFTFGQGTKVEIK
notes: as for B2
binding result (recombinant human IL6 [3]): no binding (tested: 100 nM)
Kd (hu HIL6 AFH monomer): 3000 nM
Kd [4]: 49 nM
binding result (sIL6R Fc dimer): no binding (tested: 100 nM)

B7: CLB-8 mAb (antibody, V domains shown)
VH: EVQLVESGGKLLKPGGSLKLSCAASGFTFSSFAMSWFRQSPEKRLEWVAEISSGGSYTYYPDTVTGRFTISRDNAKNTLYLEMSSLRSEDTAMYYCARGLWGYYALDYWGQGTSVTVSS
VL: QIVLIQSPAIMSASPGEKVTMTCSASSSVSYMYWYQQKPGSSPRLLIYDTSNLASGVPVRFSGSGSGTSYSLTISRMEAEDAATYYCQQWSGYPYTFGGGTKLEIKR
Kd (recombinant human IL6 [2]): 0.022 nM
koff (recombinant human IL6 [2]): 5e-05 s⁻¹
kon (recombinant human IL6 [2]): 2.3e+06 M⁻¹ s⁻¹

B8: TRU(XT6)-1025 (Fc fusion)
chain: LPAQVAFTPYAPEPGSTCRLREYYDQTAQMCCSKCSPGQHAKVFCTKTSDTVCDSCEDSTYTQLWNWVPECLSCGSRCSSDQVETQACTREQNRICTCRPGWYCALSKQEGCRLCAPLRKCRPGFGVARPGTETSDVVCKPCAPGTFSNTTSSTDICRPHQICNVVAIPGNASMDAVCTSTSPTRSMAPGAVHLPQPVSTRSQHTQPTPEPSTAPSTSFLLPMGPSPPAEGSTGDTGEPKSSDKTHTCPPCPAPEAAGAPSVFLFPPKPKDTLMISRTPEVTCVVVDVSHEDPEVKFNWYVDGVEVHNAKTKPREEQYNSTYRVVSVLTVLHQDWLNGKAYACAVSNKALPAPIEKTISKAKGQPREPQVYTLPPSRDELTKNQVSLTCLVKGFYPSDIAVEWESNGQPENNYKTTPPVLDSDGSFFLYSKLTVDKSRWQQGNVFSCSVMHEALHNHYTQKSLSLSPGQRHNNSSLNTRTQKARHSPNSEVQLLESGGGLVQPGGSLRLSCAASGFTFSHYGMHWVRQAPGKGLEWVSSIYPGMTQYADSVKGRFTISRDNSKNTLYLQMNSLRAEDTAVYYCARDRGSGIDAFDIWGQGTMVTVSSGGGGSGGGGSGGGGSQSELTQPPSVSVSPGQTATVSCSGEKLGDRYAWWYQQKAGQSPVLVIYQDTKRPSGVPDRFSGSNSGTSASLVISGPQSEDEADYYCAAWDDSLKGVVFGGGSKLTVL
notes: as for B2
binding result (recombinant human IL6 [3]): no binding (tested: 100 nM)
Kd (hu HIL6 AFH monomer): 6.3 nM
Kd [4]: 25 nM
